B1: library; a variant is named by its letters at N, in order (parent)
chain: GAGACCGCAACTGAAAAGTTGTGGNNNNNATAGTGAGTCGCTGCCTGCAAAGACACAACT

The record followed here is the supplement of paper PMC10219994.

± gives the standard deviation of the averaged measurements.

This data set covers variants of B1. Briefly: ligation selection enrichment (abundance after / before one-round selection) (fold); higher = more template-directed ligation activity. Conditions: with T7Psub CACGGAUGCUAAUACGACUCACUAUA; MgCl2 25 mM; 42 °C; 4 h; pH 8.5. The gist of the method: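 RNA ligase library with five randomized core positions (0.75 μM, T7-transcribed) was reacted with RNA substrate (6 μM) in 50 mM EPPS pH 8.5, 25 mM MgCl2 at 42 °C for 4 h, in two independent experiments. Ligated products were PAGE-purified, reverse transcribed, barcoded by PCR and MiSeq-sequenced. Reads with quality score ≥30 at all randomized positions were counted. Enrichment was abundance after ligation divided by abundance before ligation.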
Take GAGACCGCAACTGAAAAGTTGTGGTTAAGATAGTGAGTCGCTGCCTGCAAAGACACAACT [TTAAG]: the ligation selection enrichment is 0.69 ± 0.15. As for GAGACCGCAACTGAAAAGTTGTGGTTAACATAGTGAGTCGCTGCCTGCAAAGACACAACT [TTAAC], the ligation selection enrichment is 0.52 ± 0.0073.

On to GAGACCGCAACTGAAAAGTTGTGGTTAAAATAGTGAGTCGCTGCCTGCAAAGACACAACT [TTAAA], for which the ligation selection enrichment was determined as 0.329 ± 0.06.

With GAGACCGCAACTGAAAAGTTGTGGTTAATATAGTGAGTCGCTGCCTGCAAAGACACAACT [TTAAT], the ligation selection enrichment amounted to 7.9 ± 1.6.

On to GAGACCGCAACTGAAAAGTTGTGGGTCAAATAGTGAGTCGCTGCCTGCAAAGACACAACT [GTCAA], for which the ligation selection enrichment stood at 0.766 ± 0.16. On to GAGACCGCAACTGAAAAGTTGTGGGTCAGATAGTGAGTCGCTGCCTGCAAAGACACAACT [GTCAG], for which the ligation selection enrichment was 0.628 ± 0.038. GAGACCGCAACTGAAAAGTTGTGGGTCATATAGTGAGTCGCTGCCTGCAAAGACACAACT [GTCAT]: the ligation selection enrichment worked out at 0.373 ± 0.0027. As for GAGACCGCAACTGAAAAGTTGTGGGTCACATAGTGAGTCGCTGCCTGCAAAGACACAACT [GTCAC], the ligation selection enrichment is 0.221 ± 0.0092. Consider GAGACCGCAACTGAAAAGTTGTGGCTAAGATAGTGAGTCGCTGCCTGCAAAGACACAACT [CTAAG], for which the ligation selection enrichment turned out to be 0.314 ± 0.043. GAGACCGCAACTGAAAAGTTGTGGCTAATATAGTGAGTCGCTGCCTGCAAAGACACAACT [CTAAT]: the ligation selection enrichment was 1.29 ± 0.25. Under GAGACCGCAACTGAAAAGTTGTGGCTAAAATAGTGAGTCGCTGCCTGCAAAGACACAACT [CTAAA] stands 0.114 ± 0.017; under GAGACCGCAACTGAAAAGTTGTGGCTAACATAGTGAGTCGCTGCCTGCAAAGACACAACT [CTAAC], 0.146 ± 0.054.

For the variant GAGACCGCAACTGAAAAGTTGTGGCGTTCATAGTGAGTCGCTGCCTGCAAAGACACAACT [CGTTC], the ligation selection enrichment was 0.124 ± 0.0021.

As to GAGACCGCAACTGAAAAGTTGTGGCGTTGATAGTGAGTCGCTGCCTGCAAAGACACAACT [CGTTG], the ligation selection enrichment is 2.11 ± 0.56. Turning to GAGACCGCAACTGAAAAGTTGTGGCGTTTATAGTGAGTCGCTGCCTGCAAAGACACAACT [CGTTT], the ligation selection enrichment was determined as 0.379 ± 0.0055.

For the variant GAGACCGCAACTGAAAAGTTGTGGGTATCATAGTGAGTCGCTGCCTGCAAAGACACAACT [GTATC], the ligation selection enrichment was 0.167 ± 0.036.

With GAGACCGCAACTGAAAAGTTGTGGGTATTATAGTGAGTCGCTGCCTGCAAAGACACAACT [GTATT], the ligation selection enrichment amounted to 0.236 ± 0.12. For the variant GAGACCGCAACTGAAAAGTTGTGGGTATAATAGTGAGTCGCTGCCTGCAAAGACACAACT [GTATA], the ligation selection enrichment stood at 0.2557 ± 0.00086. For GAGACCGCAACTGAAAAGTTGTGGGTATGATAGTGAGTCGCTGCCTGCAAAGACACAACT [GTATG], the ligation selection enrichment was determined as 1.4 ± 0.24.

For GAGACCGCAACTGAAAAGTTGTGGGTAGGATAGTGAGTCGCTGCCTGCAAAGACACAACT [GTAGG], the ligation selection enrichment worked out at 0.422 ± 0.043. As to GAGACCGCAACTGAAAAGTTGTGGGTAGCATAGTGAGTCGCTGCCTGCAAAGACACAACT [GTAGC], the ligation selection enrichment was 0.191 ± 0.035. For GAGACCGCAACTGAAAAGTTGTGGGTAGAATAGTGAGTCGCTGCCTGCAAAGACACAACT [GTAGA], the ligation selection enrichment turned out to be 1.05 ± 0.13. Under GAGACCGCAACTGAAAAGTTGTGGGTAGTATAGTGAGTCGCTGCCTGCAAAGACACAACT [GTAGT] stands 0.166 ± 0.037. In the case of GAGACCGCAACTGAAAAGTTGTGGTGTTGATAGTGAGTCGCTGCCTGCAAAGACACAACT [TGTTG], the ligation selection enrichment was found to be 1.1 ± 0.08. In the case of GAGACCGCAACTGAAAAGTTGTGGTGTTTATAGTGAGTCGCTGCCTGCAAAGACACAACT [TGTTT], the ligation selection enrichment was 0.468 ± 0.2. GAGACCGCAACTGAAAAGTTGTGGCTATTATAGTGAGTCGCTGCCTGCAAAGACACAACT [CTATT]: the ligation selection enrichment was 0.546 ± 0.083. Under GAGACCGCAACTGAAAAGTTGTGGCTATCATAGTGAGTCGCTGCCTGCAAAGACACAACT [CTATC] stands 0.144 ± 0.0049. On to GAGACCGCAACTGAAAAGTTGTGGCTATAATAGTGAGTCGCTGCCTGCAAAGACACAACT [CTATA], for which the ligation selection enrichment came out at 0.148 ± 0.068.

As to GAGACCGCAACTGAAAAGTTGTGGCTATGATAGTGAGTCGCTGCCTGCAAAGACACAACT [CTATG], the ligation selection enrichment was 0.36 ± 0.029. Under GAGACCGCAACTGAAAAGTTGTGGATCAGATAGTGAGTCGCTGCCTGCAAAGACACAACT [ATCAG] stands 0.722 ± 0.0083; under GAGACCGCAACTGAAAAGTTGTGGATCACATAGTGAGTCGCTGCCTGCAAAGACACAACT [ATCAC], 0.175 ± 0.028; under GAGACCGCAACTGAAAAGTTGTGGATCATATAGTGAGTCGCTGCCTGCAAAGACACAACT [ATCAT], 0.391 ± 0.082.

For GAGACCGCAACTGAAAAGTTGTGGATCAAATAGTGAGTCGCTGCCTGCAAAGACACAACT [ATCAA], the ligation selection enrichment is 0.518 ± 0.024. For GAGACCGCAACTGAAAAGTTGTGGGTACAATAGTGAGTCGCTGCCTGCAAAGACACAACT [GTACA], the ligation selection enrichment stood at 0.288 ± 0.094. As to GAGACCGCAACTGAAAAGTTGTGGGTACCATAGTGAGTCGCTGCCTGCAAAGACACAACT [GTACC], the ligation selection enrichment turned out to be 0.165 ± 0.011. Turning to GAGACCGCAACTGAAAAGTTGTGGGTACGATAGTGAGTCGCTGCCTGCAAAGACACAACT [GTACG], the ligation selection enrichment worked out at 1.47 ± 0.055.

As for GAGACCGCAACTGAAAAGTTGTGGGTACTATAGTGAGTCGCTGCCTGCAAAGACACAACT [GTACT], the ligation selection enrichment turned out to be 0.785 ± 0.17. As to GAGACCGCAACTGAAAAGTTGTGGATACAATAGTGAGTCGCTGCCTGCAAAGACACAACT [ATACA], the ligation selection enrichment stood at 0.257 ± 0.032. Regarding GAGACCGCAACTGAAAAGTTGTGGATACCATAGTGAGTCGCTGCCTGCAAAGACACAACT [ATACC], the ligation selection enrichment was 0.169 ± 0.016. As to GAGACCGCAACTGAAAAGTTGTGGATACGATAGTGAGTCGCTGCCTGCAAAGACACAACT [ATACG], the ligation selection enrichment is 1.5 ± 0.28. On to GAGACCGCAACTGAAAAGTTGTGGATACTATAGTGAGTCGCTGCCTGCAAAGACACAACT [ATACT], for which the ligation selection enrichment was 0.541 ± 0.11.

Regarding GAGACCGCAACTGAAAAGTTGTGGATAGGATAGTGAGTCGCTGCCTGCAAAGACACAACT [ATAGG], the ligation selection enrichment worked out at 0.3 ± 0.012. Under GAGACCGCAACTGAAAAGTTGTGGATAGAATAGTGAGTCGCTGCCTGCAAAGACACAACT [ATAGA] stands 0.543 ± 0.062; under GAGACCGCAACTGAAAAGTTGTGGATAGTATAGTGAGTCGCTGCCTGCAAAGACACAACT [ATAGT], 0.17 ± 0.01; under GAGACCGCAACTGAAAAGTTGTGGATAGCATAGTGAGTCGCTGCCTGCAAAGACACAACT [ATAGC], 0.131 ± 0.033.
